Reference: US7838495B2, “Compositions and methods of use of EPB1, and ErbB3 binding protein” (University of Maryland, Baltimore, priority 2007, dated 2010)

Tested on: MCF-7 cells
Experiment: HRG-induced MAPK and AKT phosphorylation in MCF-7 transfectants
Assay type: cell-based, human
Conditions: EBP1 overexpressing MCF-7 cells
Experimental: FIG. 11A-C. Ebp1 affects HRG-induced downstream signaling pathways. Serum starved MCF-7 vector control (CMV) or EBP1 transfected cells (Ebp1) cells were stimulated with HRG (20 ng/ml) for the indicated times. Cells lysates were blotted with antibodies to (A) phosphor MAPK and total MAPK or (B) phospho-Akt or total AKT. Data are representative of three experiments. […] Eight hours after transfection, cells were refed with media with 2% serum and the indicated concentrations of HRG. Growth was assessed by MTT assay 3 days later. Data are representative of two experiments.
2.5. Western blot analysis. Total cell extracts were prepared by direct lysis of cells with lysis buffer [50 mM Tris-HCl (pH 7.4), 1 mM EDTA, 250 mM NaCl, 1% Triton X-100, 0.5 mM DTT, and 1× Complete™ protease inhibitor]. Protein concentrations were measured using a detergent compatible kit (Bio-Rad). Proteins (30 lg per well) were resolved by SDS-PAGE, transferred to PVDF membranes, and immunoblotted as described. […] Images were quantified using IMAGE-J software (NIH). […] Relative cell numbers were determined 4 days later using a Promega Proliferation Reagent as per manufacturer's instructions with absorbance being read at 490 nm using a Dynex plate reader. […] Data were analyzed using a two-tailed Students t-test and a p <0.05 was deemed statistically significant. […]

B1: EBP1: ErbB3 binding protein (SEQ ID NO: 2), AR corepressor, here ectopically expressed in cancer cells by stable transfection of an expression plasmid (protein, listed as Homo sapiens)
chain: MSGEDEQQEQTIAEDLVVTKYKMGGDIANRVLRSLVEASSSGVSVLSLCEKGDAMIMEETGKIFKKEKEMKKGIAFPTSISVNNCVCHFSPLKSDQDYILKEGDLVKIDLGVHVDGFIANVAHTFVVDVAQGTQVTGRKADVIKAAHLCAEAALRLVKPGNQNTQVTEAWNKVAHSFNCTPIEGMLSHQLKQHVIDGEKTIIQNPTDQQKKDHEKAEFEVHEVYAVDVLVSSGEGKAKDAGQRTTIYKRDPSKQYGLKMKTSRAFFSEVERRFDAMPFTLRAFEDEKKARMGVVECAKHELLQPFNVLYEKEGEFVAQFKFTVLLMPNGPMRITSGPFEPDLYKSEMEVQDAELKALLQSSASRKTQKKKKKKASKTAENATSGETLEENEAGD
modifications: FLAG tag
With B1 the “basal MAPK phosphorylation” value was “constitutively phosphorylated”.
